What was measured:
[1] = system: CC(=O)OCC1=C(C(=O)O)N2C(=O)[C@@H](NC(=O)Cc3cccs3)[C@H]2SC1; test: steady-state hydrolysis kinetics (Km) with purified enzyme; format: biochemical, Serratia marcescens
[2] = system: CC1(C)S[C@@H]2[C@H](NC(=O)Cc3ccccc3)C(=O)N2[C@H]1C(=O)O; test: as above; format: biochemical, Serratia marcescens
[3] = system: CC1(C)S[C@@H]2[C@H](NC(=O)[C@H](N)c3ccccc3)C(=O)N2[C@H]1C(=O)O; test: as above; format: biochemical, Serratia marcescens
[4] = system: CO/N=C(\C(=O)N[C@@H]1C(=O)N2C(C(=O)O)=C(COC(C)=O)CS[C@H]12)c1csc(N)n1; test: as above; format: biochemical, Serratia marcescens
[5] = system: C[C@@H](O)[C@H]1C(=O)N2C(C(=O)O)=C(SCCN=CN)C[C@H]12; test: as above; format: biochemical, Serratia marcescens
[6] = system: C[C@@H](O)[C@H]1C(=O)N2C(C(=O)O)=C(S[C@@H]3CN[C@H](C(=O)Nc4cccc(C(=O)O)c4)C3)[C@H](C)[C@H]12; test: as above; format: biochemical, Serratia marcescens
[7] = system: Cc1onc(-c2ccccc2)c1C(=O)N[C@@H]1C(=O)N2[C@@H]1SC(C)(C)[C@@H]2C(=O)O; test: as above; format: biochemical, Serratia marcescens
[8] = target: T1, OXA-405 β-lactamase (Serratia marcescens, UniProt A0A0F6P2I5); test: IC50 with purified enzyme, […] benzylpenicillin as reporter substrate, […] min preincubation; format: biochemical
T1 construct: gene blaOXA-405
T1 sequence (A0A0F6P2I5 23-261 limits assumed): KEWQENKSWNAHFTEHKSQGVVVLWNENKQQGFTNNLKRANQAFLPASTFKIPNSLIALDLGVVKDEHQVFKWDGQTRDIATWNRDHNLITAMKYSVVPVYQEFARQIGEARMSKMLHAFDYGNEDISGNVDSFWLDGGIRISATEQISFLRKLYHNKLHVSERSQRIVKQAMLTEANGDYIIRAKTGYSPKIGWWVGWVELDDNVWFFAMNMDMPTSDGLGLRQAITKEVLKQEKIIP

[9] = target: T1, OXA-405 β-lactamase; test: steady-state hydrolysis kinetics (Km) with purified enzyme; format: biochemical

For “OXA-405 β-lactamase (Serratia marcescens)”, the Km [1] was 18 µM, the kcat [1] was 8 s⁻¹ and the kcat/Km [1] was 444000 M⁻¹ s⁻¹. It also gave a Km [2] of 18 µM, a kcat [2] of 12 s⁻¹ and a kcat/Km [2] of 667000 M⁻¹ s⁻¹. For the same compound, the Km [3] was 212 µM, the kcat [3] was 29 s⁻¹ and the kcat/Km [3] was 137000 M⁻¹ s⁻¹. It also gave a Km [4] of 369 µM, a kcat [4] of 9.7 s⁻¹ and a kcat/Km [4] of 26000 M⁻¹ s⁻¹. The Km [5] was 532 µM, the kcat [5] was 0.1 s⁻¹ and the kcat/Km [5] was 200 M⁻¹ s⁻¹. For the same compound, the Km [6] was 88 µM, the kcat [6] was 0.04 s⁻¹ and the kcat/Km [6] was 400 M⁻¹ s⁻¹. For the same compound, the Km [7] was 69 µM, the kcat [7] was 19 s⁻¹ and the kcat/Km [7] was 275000 M⁻¹ s⁻¹.

Compound O=C(O)[C@H]1/C(=C/CO)O[C@@H]2CC(=O)N21 [Clavulanic acid] has an IC50 [8] of 6 µM.

Work on C[C@]1(Cn2ccnn2)[C@H](C(=O)O)N2C(=O)C[C@H]2S1(=O)=O [Tazobactam] yielded an IC50 [8] of 1.8 µM.

With CC(C)(O/N=C(\C(=O)N[C@@H]1C(=O)N2C(C(=O)[O-])=C(C[n+]3ccccc3)CS[C@H]12)c1csc(N)n1)C(=O)O [Ceftazidime] the Km [9] was greater than 1000 µM.

Reference: publication PMC7022249, “Biochemical and Structural Characterization of OXA-405, an OXA-48 Variant with Extended-Spectrum β-Lactamase Activity” (Microorganisms, 2019)
